In patent publication US20140120625:

Molecular target: FLPe (thermostable FLP variant) (UniProt P03870)
Experiment: cell_activity

UniProt P03870, sequence (P03870 whole entry, change not shown): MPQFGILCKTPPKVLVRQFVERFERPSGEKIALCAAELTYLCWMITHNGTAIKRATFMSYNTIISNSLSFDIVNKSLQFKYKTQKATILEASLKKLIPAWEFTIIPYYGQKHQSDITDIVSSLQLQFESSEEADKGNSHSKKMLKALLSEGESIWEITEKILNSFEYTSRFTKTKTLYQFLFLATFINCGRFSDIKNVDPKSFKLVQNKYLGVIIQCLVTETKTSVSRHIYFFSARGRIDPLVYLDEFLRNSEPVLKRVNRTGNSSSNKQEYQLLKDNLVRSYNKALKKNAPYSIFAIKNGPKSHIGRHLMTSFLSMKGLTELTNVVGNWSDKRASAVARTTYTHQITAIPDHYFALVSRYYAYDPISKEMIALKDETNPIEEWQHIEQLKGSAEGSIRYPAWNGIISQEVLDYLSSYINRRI

Q: How did the binding signal (simultaneous four-locus gene swapping frequency in A. niger M1146, FRT-F/FRT-F3 pair) turn out when “TTGAAGTTCCTATTCCGAGTTCCTATTCTCTAGAAAGTATAGGAACTTC (double strand) [FRT-F]” was run?
A: 3 fold vs FLP

Q: How did the binding signal (same assay, paired with FRT-F) turn out when “TTGAAGTTCCTATTCCGAGTTCCTATTCTTCAAATAGTATAGGAACTTCA (double strand) [FRT-F3]” was run?
A: 3 fold vs FLP
